We go through one molecule from patent US20090068174A1, “THERAPEUTIC ALKALINE PROTEASE COMPOSITIONS AND USE IN FACILITATING THE TRANSPORT OF AGENTS ACROSS THE GASTROINTESTINAL MUCOSAL LINING” (Kansas University Medical Center Research Institute, Inc., priority 2007, published 2009).

The target in assay [1] is T1, human IFN-γ (Homo sapiens, UniProt P01579).
T1 sequence (P01579 24-166): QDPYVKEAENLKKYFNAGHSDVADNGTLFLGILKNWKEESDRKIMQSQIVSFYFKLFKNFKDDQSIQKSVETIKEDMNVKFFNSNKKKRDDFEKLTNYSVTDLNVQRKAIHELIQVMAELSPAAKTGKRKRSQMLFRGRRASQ
Briefly: Fc receptor-inducing activity of protease-treated human IFN-γ on U937 cells. Also noted: key: +: Indicates that the protease inactivated the cytokine; ^a: Cleavage of the cytokine occurred without inactivation. The assay is classed as cell-based. Conditions: Table 7 summary. The protocol: Effects of the purified A. oryzae proteases on the Fc receptor-inducing activity of human IFN-γ. Samples of the cytokine were first treated with the indicated Pseudomonas or fungal proteases: Elastase (∘); Preparation ([…]); Alkaline Protease (□); Deuterolysin (▪); and 26 kDa Protease (Δ). The treated samples were added to human promyelocytic U937 cells to induce expression of Fc receptors for IgG, which was detected by flow cytometry. The results are plotted either as a decrease in of mean channel fluorescence (A) or a decrease in % positive cells (B) plotted against increasing protease amounts.
Samples of the cytokine were first treated with the indicated Pseudomonas or fungal proteases: Elastase (∘); Preparation ([…]); Alkaline Protease (□); Deuterolysin (▪); and 26 kDa Protease (Δ). The treated samples were added to human promyelocytic U937 cells to induce expression of Fc receptors for IgG, which was detected by flow cytometry. The results are plotted either as a decrease in of mean channel fluorescence (A) or a decrease in % positive cells (B) plotted against increasing protease amounts.

The test system of assay [2] is TNBS-induced colitis. Briefly: Induction of IBD in the hapten (TNBS)-induced SJL mouse model. Type of assay: in vivo. As to conditions: SJL mice, i.p. and oral treatment. The method, then:
This example uses the TNBS model in the SJL mouse, a susceptible strain, comparing systemic versus oral administration of the alkaline protease as a prophylactic treatment of blocking the induction of gastrointestinal inflammation. Endpoint measurements can include histopathological evaluation and scoring of the lesions as known in the art.
SJL strain mice (Jackson Labs) can be lightly anesthetized, and a solution of 25-50 μg of TNBS in 100 μl 50% ethanol can be administered by enema. Initial studies can determine whether sufficient pathology is induced by a single injection or whether the two challenge protocol (day 0 and day 7) is preferable. Response parameters include: (a) body weight measured on days 0, 2, 4, 6, 8, and 10; (b) pathological scoring of lesions in the intestine on day 10 (0=no inflam; 1=low level leukocyte infiltration; 2=medium infiltration, vascular intensity with some wall thickening; 3=high level infiltration, vascular response and thickening; 4=transmural infiltration, loss of goblet cells); (c) and immunohistological staining for activated caspase-3 and TNF-α. Wall thickening can be measured, for instance, as described by Dohi et al. (1999) “Hapten-induced colitis is associated with colonic patch hypertrophy and T helper cell 2-type responses.” J Expt Med 189: 1169-79, which is incorporated by reference. […]

B1: Alkaline Protease: Aspergillus oryzae alkaline protease (oryzin), SEQ ID NO: 2, purified from the protease powder of Example 1 (protein, listed as Aspergillus oryzae)
chain: MQSIKRTLLLLGAILPAVLGAPVQETRRAAEKLPGKYIVTFKPGIDEAKIQEHTTWATNIHQRSLERRGATGGDLPVGIERNYKINKFAAYAGSFDDATIEEIRKNEDVAYVEEDQIYYLDGLTTQKSAPWGLGSISHKGQQSTDYIYDTSAGEGTYAYVVDSGVNVDHEEFEGRASKAYNAAGGQHVDSIGHGTHVSGTIAGKTYGIAKKASILSVKVFQGESSSTSVILDGFNWAANDIVSKKRTSKAAINMSLGGGYSKAFNDAVENAFEQGVLSVVAAGNENSDAGQTSPASAPDAITVAAIQKSNNRASFSNFGKVVDVFAPGQDILSAWIGSSSATNTISGTSMATPHIVGLSLYLAALENLDGPAAVTKRIKELATKDWKDVKGSPNLLAYNGNA
In the case of B1, the “Inactivation of Human IFN-γ” value in assay [1] is recorded as “+”. Also, the “Weight loss and IBD induction by TNBS” value in assay [2] was “can prevent and/or lessen weight loss and IBD induction by TNBS”.
